Reference: IntAct's records for PubMed 17360471

Target: sgk1_human SGK1 (UniProt O00141)
Sequence (O00141 whole entry): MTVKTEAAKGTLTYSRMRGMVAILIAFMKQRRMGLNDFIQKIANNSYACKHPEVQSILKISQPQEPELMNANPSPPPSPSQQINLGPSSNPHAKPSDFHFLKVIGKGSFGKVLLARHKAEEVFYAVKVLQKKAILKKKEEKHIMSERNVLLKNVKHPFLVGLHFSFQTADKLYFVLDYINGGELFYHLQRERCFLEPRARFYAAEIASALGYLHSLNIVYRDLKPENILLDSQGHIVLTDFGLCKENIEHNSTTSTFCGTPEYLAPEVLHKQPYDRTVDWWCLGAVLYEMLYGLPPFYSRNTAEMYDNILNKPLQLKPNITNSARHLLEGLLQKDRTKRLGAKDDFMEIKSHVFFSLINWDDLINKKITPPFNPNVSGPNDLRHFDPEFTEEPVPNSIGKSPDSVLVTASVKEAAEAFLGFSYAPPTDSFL

Substance	effect of a mutation on the interaction
Serine/threonine-protein kinase WNK4 (Mus musculus), Q80UE6 Q562E	decreasing interaction strength
Serine/threonine-protein kinase WNK4 (Mus musculus), Q80UE6 S1169D	decreasing interaction strength
